Target: acetylcholine receptor
Test: SPR, AchR immobilized on CM5 chip, peptide at 10 uM

Row | Binding affinity (RU) | Binder
1 | 19 RU | KPHIK [5mer-728]
2 | 22 RU | KPNWR [5mer-703]
3 | 24 RU | RCTWK [5mer-1017]
4 | 12 RU | KCKVK [5mer-1020]
5 | 32 RU | KDPKR [5mer-720]
6 | 23 RU | RKNKR [5mer-1014]
7 | 23 RU | KTCDR [5mer-733]
8 | 30 RU | KISHK [5mer-702]
9 | 13 RU | RYCKK [5mer-1023]
10 | 27 RU | RKMAK [5mer-706]
11 | 18 RU | RISDK [5mer-1030]
12 | 11 RU | RHCER [5mer-735]
13 | 29 RU | KIADK [5mer-1022]
14 | 16 RU | KYPKK [5mer-713]
15 | 32 RU | KIEAK [5mer-707]
16 | 25 RU | KTDMK [5mer-1011]
17 | 28 RU | RMAMR [5mer-1028]
18 | 20 RU | KPKAR [5mer-708]
19 | 18 RU | RADFK [5mer-712]
20 | 29 RU | KMCAK [5mer-1009]
21 | 11 RU | KDSNR [5mer-1008]
22 | 19 RU | RNADR [5mer-725]
23 | 19 RU | KTKFK [5mer-999]
24 | 26 RU | KITHK [5mer-1021]
25 | 141 RU | RQQRRR [6mer-2-398]
26 | 32 RU | KECIK [5mer-711]
27 | 21 RU | KISER [5mer-719]

Row | Binding affinity (RU) | Binder
28 | 12 RU | KKNER [5mer-699]
29 | 14 RU | RFAKK [5mer-1034]
30 | 28 RU | RFKFK [5mer-1019]
31 | 11 RU | RMTVR [5mer-1003]
32 | 23 RU | KEPDK [5mer-729]
33 | 33 RU | KATMK [5mer-726]
34 | 122 RU | KWLQRR [6mer-2-396]
35 | 32 RU | RPCAK [5mer-714]
36 | 28 RU | KNTNR [5mer-1027]
37 | 16 RU | KATER [5mer-734]
38 | 27 RU | RHTIR [5mer-709]
39 | 13 RU | RKEER [5mer-1031]
40 | 22 RU | RASPR [5mer-723]
41 | 25 RU | KINVR [5mer-716]
42 | 19 RU | RNKKK [5mer-718]
43 | 15 RU | RHAKK [5mer-705]
44 | 20 RU | RNAVR [5mer-1026]
45 | 23 RU | RHHMR [5mer-1032]
46 | 19 RU | KCCVK [5mer-1013]
47 | 22 RU | RYSKK [5mer-721]
48 | 154 RU | RQIRRR [6mer-2-400]
49 | 30 RU | RDMMR [5mer-1007]
50 | 20 RU | KCKFR [5mer-717]
51 | 22 RU | KIMWR [5mer-732]
52 | 154 RU | RSIYRK [6mer-2-397]
53 | 31 RU | KMDAR [5mer-727]
54 | 22 RU | RNHNK [5mer-701]

Row | Binding affinity (RU) | Binder
55 | 18 RU | KADHK [5mer-731]
56 | 22 RU | RHKVR [5mer-1012]
57 | 16 RU | KCDNK [5mer-1010]
58 | 33 RU | KNHKK [5mer-722]
59 | 17 RU | RAWER [5mer-700]
60 | 14 RU | KTTAK [5mer-724]
61 | 148 RU | RWLTRR [6mer-2-399]
62 | 30 RU | RCWMK [5mer-1015]
63 | 12 RU | KEDNK [5mer-1002]
64 | 22 RU | KCNGR [5mer-715]
65 | 20 RU | KFWAK [5mer-1018]
66 | 30 RU | RDADR [5mer-1004]
67 | 28 RU | REWDK [5mer-1033]
68 | 26 RU | KIDNK [5mer-1024]
69 | 20 RU | KHCWR [5mer-1000]
70 | 25 RU | KADIK [5mer-1029]
71 | 17 RU | KEPER [5mer-1006]
72 | 25 RU | RHKWK [5mer-1025]
73 | 21 RU | KEKAR [5mer-710]
74 | 33 RU | KPCGK [5mer-1001]
75 | 153 RU | RSILRK [6mer-2-401]
76 | 28 RU | KYTMR [5mer-1016]
77 | 27 RU | KFCNK [5mer-730]
78 | 30 RU | RTHGR [5mer-1005]
79 | 28 RU | RFMGK [5mer-704]
